Laboratory results published in patent US20250127918A1, “SITE-SELECTIVE CONJUGATION OF A PHARMACEUTICAL AGENT TO AN ANTIBODY USING AN AFFINITY PEPTIDE” (priority 2023, published 2025).

What was measured:
[1] = Whole-body biodistribution of [89Zr]Zr-labelled affinity peptides after subcutaneous injection (gamma counter); details: mouse, in vivo, sc
mouse IgG = assay: Azido transfer to mouse IgG in mouse serum (E1/E2 sandwich ELISA); type: biochemical; details: after 2 h of incubation in mouse sera
Trastuzumab [2] = molecular target: T1, Trastuzumab (Homo sapiens, UniProt P01857, D239E/L241M); assay: Bioconjugation handle / GLP1 transfer to trastuzumab, analyzed by Q-ToF LC-MS; type: biochemical
T1 construct: purchased Syd Labs Inc; MedChemExpress LLC; Bio X Cell
Method: The conversion rate for each reaction was calculated by one of the following methods. Determination by LC-MS: Reported yields based on LC-MS spectra were determined by extracting the total ion current (TIC) spectra of all protein-containing species in the chromatogram utilizing Agilent MassHunter 6.0 software with BioConfirm package. These extracted chromatograms were deconvoluted utilizing a maximum entropy algorithm and abundance of each species determined using total ion count.
A reaction solution corresponding to 9.0 μg of IgG was taken into a PCR tube and diluted with Tris buffer (100 mM, pH 8.1) to a final volume of 6 μL. […] Afterward, DTT (200 mM in water, 2 μL) was added, and the mixture was further incubated at 37° C. for 1 hour. Finally, the solution was diluted to a volume of 40 μL with a mixture of water and acetonitrile (95:5), and 8 μL of the diluted solution was injected into LC-MS.
Reactions were performed on a 20 μL scale using 0.2 mL PCR tubes (FIG. 61). First, the electrophile-attached Z33 peptide reagent was dissolved in water to prepare a 2 mg/mL solution. Trastuzumab (MedChemExpress LLC. or Bio X Cell), electrophile-attached Z33 peptide reagent (2 mg/mL), and buffer were added to achieve final concentrations of 10 μM, 200 μM, and values listed in the following table, respectively. If the HEPES was used as a buffer, NaCl solution (4M, 1 uL) was added to the reaction mixture. […] The resulting reaction solution was quenched with a 100 mM glycine buffer of 100 mM Tris buffer and analyzed by LC-MS. Sample preparation for LC-MS analysis was performed in the same manner previously described. […] Therefore, a post-processing step was implemented to remove electrophiles using an Amicon® filter. The reaction mixture was diluted to 200 μL with citrate buffer (100 mM, pH 2.7) and filtered through an Amicon® filter (0.5 mL, 50KMWCO) at 14000 rcf for 7 minutes. […]
Reactions were performed on a 20 μL scale using 0.2 mL PCR tubes (FIG. 61). […] The resulting reaction solution was quenched with a 100 mM Tris buffer and analyzed by LC-MS (FIG. 53, Table 8).

Trastuzumab [3] = molecular target: T1, Trastuzumab; assay: as above; type: biochemical; details: 10 equivalents, 100 mM HEPES pH 8.5, room temperature, 24 h

Light chain total conversion (Trastuzumab [2]; 20 equivalents, PBS, room temperature, 24 h): 12%
Light chains modified with the electrophile (Trastuzumab [2]; hIgG1-2, excess (20 eq.) reagent): less than 2%
Modifications incorporated into the heavy chain of Tmab (Trastuzumab [2]; hIgG1 trastuzumab (1 eq.), peptide 20 eq., after 24 h): up to 99%
Light chain total conversion (Trastuzumab [3]): 5%
Sequence: FNMQQQRRFYEALHD PNLNHcyEQRNAKIKSI RDD [PEL-21]
Time detectable in the kidneys [1]: up to 240 hours
IgG conversion rate in mouse sera (mouse IgG): 33±1%
